According to IntAct's records for PubMed 9045636:

B1: Proto-oncogene tyrosine-protein kinase LCK (Mus musculus), P06240 (parent)
chain: MGCVCSSNPEDDWMENIDVCENCHYPIVPLDSKISLPIRNGSEVRDPLVTYEGSLPPASPLQDNLVIALHSYEPSHDGDLGFEKGEQLRILEQSGEWWKAQSLTTGQEGFIPFNFVAKANSLEPEPWFFKNLSRKDAERQLLAPGNTHGSFLIRESESTAGSFSLSVRDFDQNQGEVVKHYKIRNLDNGGFYISPRITFPGLHDLVRHYTNASDGLCTKLSRPCQTQKPQKPWWEDEWEVPRETLKLVERLGAGQFGEVWMGYYNGHTKVAVKSLKQGSMSPDAFLAEANLMKQLQHPRLVRLYAVVTQEPIYIITEYMENGSLVDFLKTPSGIKLNVNKLLDMAAQIAEGMAFIEEQNYIHRDLRAANILVSDTLSCKIADFGLARLIEDNEYTAREGAKFPIKWTAPEAINYGTFTIKSDVWSFGILLTEIVTHGRIPYPGMTNPEVIQNLERGYRMVRPDNCPEELYHLMMLCWKERPEDRPTFDYLRSVLDDFFTATEGQYQPQP

Variants of: B1
Settings: with khdr1_human KHDRBS1, Q07666
khdr1_human KHDRBS1, Q07666, sequence (Q07666 whole entry): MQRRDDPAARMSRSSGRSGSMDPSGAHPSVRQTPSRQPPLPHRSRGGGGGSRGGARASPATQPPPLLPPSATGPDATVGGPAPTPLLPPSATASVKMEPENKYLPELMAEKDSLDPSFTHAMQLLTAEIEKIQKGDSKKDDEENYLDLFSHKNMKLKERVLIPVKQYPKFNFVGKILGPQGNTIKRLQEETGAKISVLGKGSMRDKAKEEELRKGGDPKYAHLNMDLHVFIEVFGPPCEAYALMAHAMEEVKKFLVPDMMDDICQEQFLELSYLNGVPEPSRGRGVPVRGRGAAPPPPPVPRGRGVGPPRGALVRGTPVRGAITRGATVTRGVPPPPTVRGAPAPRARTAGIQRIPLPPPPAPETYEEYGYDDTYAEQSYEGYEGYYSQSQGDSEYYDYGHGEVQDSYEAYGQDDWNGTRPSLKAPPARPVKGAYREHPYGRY

| effect of a mutation on the interaction | Variant |
| --- | --- |
| decreasing interaction | P112K |

Variants of: B1
Settings: with khdr1_human KHDRBS1, Q07666
Remark: another data set of the same source

| effect of a mutation on the interaction | Variant |
| --- | --- |
| decreasing interaction | R154K |
